As usually defined, the Kd is a measure of binding affinity in units of concentration. Higher therefore signals weaker binding.

T1: EsCas13d, nuclease-dead (Eubacterium siraeum, UniProt B0MS50, R295A;H300A;R849A;H854A)
T1 sequence: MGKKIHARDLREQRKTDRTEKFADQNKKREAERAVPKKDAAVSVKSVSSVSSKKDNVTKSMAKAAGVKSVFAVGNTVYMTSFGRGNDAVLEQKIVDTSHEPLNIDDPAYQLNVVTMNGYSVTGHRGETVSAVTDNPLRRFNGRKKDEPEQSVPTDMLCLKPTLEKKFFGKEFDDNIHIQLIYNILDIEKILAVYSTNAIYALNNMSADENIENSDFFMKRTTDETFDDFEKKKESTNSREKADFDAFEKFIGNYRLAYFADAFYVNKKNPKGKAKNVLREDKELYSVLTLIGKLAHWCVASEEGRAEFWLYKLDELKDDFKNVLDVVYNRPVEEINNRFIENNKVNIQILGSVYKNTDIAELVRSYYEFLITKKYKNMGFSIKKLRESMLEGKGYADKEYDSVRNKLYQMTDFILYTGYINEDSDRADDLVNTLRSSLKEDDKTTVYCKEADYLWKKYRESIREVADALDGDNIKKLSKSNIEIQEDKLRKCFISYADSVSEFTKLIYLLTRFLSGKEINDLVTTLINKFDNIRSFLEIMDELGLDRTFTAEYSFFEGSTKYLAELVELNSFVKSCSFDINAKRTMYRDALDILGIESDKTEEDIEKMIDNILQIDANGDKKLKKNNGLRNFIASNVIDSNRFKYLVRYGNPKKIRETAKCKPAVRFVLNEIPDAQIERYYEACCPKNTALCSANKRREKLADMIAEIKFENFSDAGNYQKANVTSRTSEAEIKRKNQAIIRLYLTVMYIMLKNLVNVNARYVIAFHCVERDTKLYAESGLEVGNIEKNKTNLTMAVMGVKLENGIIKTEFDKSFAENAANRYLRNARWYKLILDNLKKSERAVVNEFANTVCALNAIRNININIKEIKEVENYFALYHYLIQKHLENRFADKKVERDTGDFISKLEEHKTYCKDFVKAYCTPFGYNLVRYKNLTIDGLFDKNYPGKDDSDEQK

B1: target 1 insU 3' of 5,insA 3' of 2 (mixed)
RNA 1: CACCCGUGCAAAAAUGCAGGGGUCUAAAACUGAGCGGAUAACCUCUCUAUGG
RNA 2: GGGAAUGGAUCCACAUCUACGAAUUCGUACCAUAGAGAGGUUAUCCGUCUCAACCGAGAUCGGAAGAGCACACGU
B2: target 1 A1G,C7U (mixed)
RNA 1: CACCCGUGCAAAAAUGCAGGGGUCUAAAACUGAGCGGAUAACCUCUCUAUGG
RNA 2: GGGAAUGGAUCCACAUCUACGAAUUCGUACCAUAGAGAGGUUAUUCGCUCGCCGAGAUCGGAAGAGCACACGU
B3: target 1 G5C,A9C (mixed)
RNA 1: CACCCGUGCAAAAAUGCAGGGGUCUAAAACUGAGCGGAUAACCUCUCUAUGG
RNA 2: GGGAAUGGAUCCACAUCUACGAAUUCGUACCAUAGAGAGGUUCUCCCCUCACCGAGAUCGGAAGAGCACACGU
B4: target 1 insA 3' of 12,insC 3' of 5 (mixed)
RNA 1: CACCCGUGCAAAAAUGCAGGGGUCUAAAACUGAGCGGAUAACCUCUCUAUGG
RNA 2: GGGAAUGGAUCCACAUCUACGAAUUCGUACCAUAGAGAGGAUUAUCCGCCUCACCGAGAUCGGAAGAGCACACGU
B5: target 1 insG 3' of 4 (mixed)
RNA 1: CACCCGUGCAAAAAUGCAGGGGUCUAAAACUGAGCGGAUAACCUCUCUAUGG
RNA 2: GGGAAUGGAUCCACAUCUACGAAUUCGUACCAUAGAGAGGUUAUCCGCGUCACCGAGAUCGGAAGAGCACACGU
B6: target 1 insA 3' of 10,insG 3' of 10 (mixed)
RNA 1: CACCCGUGCAAAAAUGCAGGGGUCUAAAACUGAGCGGAUAACCUCUCUAUGG
RNA 2: GGGAAUGGAUCCACAUCUACGAAUUCGUACCAUAGAGAGGUUAGAUCCGCUCACCGAGAUCGGAAGAGCACACGU
B7: target 1 A1C,C7U (mixed)
RNA 1: CACCCGUGCAAAAAUGCAGGGGUCUAAAACUGAGCGGAUAACCUCUCUAUGG
RNA 2: GGGAAUGGAUCCACAUCUACGAAUUCGUACCAUAGAGAGGUUAUUCGCUCCCCGAGAUCGGAAGAGCACACGU
B8: target 1 insA 3' of 4,insU 3' of 2 (mixed)
RNA 1: CACCCGUGCAAAAAUGCAGGGGUCUAAAACUGAGCGGAUAACCUCUCUAUGG
RNA 2: GGGAAUGGAUCCACAUCUACGAAUUCGUACCAUAGAGAGGUUAUCCGCAUCUACCGAGAUCGGAAGAGCACACGU
B9: target 1 C2A,C22U (mixed)
RNA 1: CACCCGUGCAAAAAUGCAGGGGUCUAAAACUGAGCGGAUAACCUCUCUAUGG
RNA 2: GGGAAUGGAUCCACAUCUACGAAUUCGUAUCAUAGAGAGGUUAUCCGCUAACCGAGAUCGGAAGAGCACACGU
B10: target 1 insA 3' of 7,insU 3' of 6 (mixed)
RNA 1: CACCCGUGCAAAAAUGCAGGGGUCUAAAACUGAGCGGAUAACCUCUCUAUGG
RNA 2: GGGAAUGGAUCCACAUCUACGAAUUCGUACCAUAGAGAGGUUAUCACUGCUCACCGAGAUCGGAAGAGCACACGU
B11: target 1 insG 3' of 2,insG 3' of 1 (mixed)
RNA 1: CACCCGUGCAAAAAUGCAGGGGUCUAAAACUGAGCGGAUAACCUCUCUAUGG
RNA 2: GGGAAUGGAUCCACAUCUACGAAUUCGUACCAUAGAGAGGUUAUCCGCUCGAGCCGAGAUCGGAAGAGCACACGU
B12: target 1 complement block 2-13 (mixed)
RNA 1: CACCCGUGCAAAAAUGCAGGGGUCUAAAACUGAGCGGAUAACCUCUCUAUGG
RNA 2: GGGAAUGGAUCCACAUCUACGAAUUCGUACCAUAGAGACCAAUAGGCGAGACCGAGAUCGGAAGAGCACACGU
B13: target 1 insC 3' of 12,insU 3' of 6 (mixed)
RNA 1: CACCCGUGCAAAAAUGCAGGGGUCUAAAACUGAGCGGAUAACCUCUCUAUGG
RNA 2: GGGAAUGGAUCCACAUCUACGAAUUCGUACCAUAGAGAGGCUUAUCCUGCUCACCGAGAUCGGAAGAGCACACGU
B14: target 1 C2U,A18U (mixed)
RNA 1: CACCCGUGCAAAAAUGCAGGGGUCUAAAACUGAGCGGAUAACCUCUCUAUGG
RNA 2: GGGAAUGGAUCCACAUCUACGAAUUCGUACCAUUGAGAGGUUAUCCGCUUACCGAGAUCGGAAGAGCACACGU
B15: target 1 insG 3' of 6,insU 3' of 5 (mixed)
RNA 1: CACCCGUGCAAAAAUGCAGGGGUCUAAAACUGAGCGGAUAACCUCUCUAUGG
RNA 2: GGGAAUGGAUCCACAUCUACGAAUUCGUACCAUAGAGAGGUUAUCCGGUCUCACCGAGAUCGGAAGAGCACACGU
B16: target 1 insU 3' of 20,insG 3' of 19 (mixed)
RNA 1: CACCCGUGCAAAAAUGCAGGGGUCUAAAACUGAGCGGAUAACCUCUCUAUGG
RNA 2: GGGAAUGGAUCCACAUCUACGAAUUCGUACCAUUGAGAGAGGUUAUCCGCUCACCGAGAUCGGAAGAGCACACGU
B17: target 1 C7U,A14G (mixed)
RNA 1: CACCCGUGCAAAAAUGCAGGGGUCUAAAACUGAGCGGAUAACCUCUCUAUGG
RNA 2: GGGAAUGGAUCCACAUCUACGAAUUCGUACCAUAGAGGGGUUAUUCGCUCACCGAGAUCGGAAGAGCACACGU
B18: target 1 del7,del8 (mixed)
RNA 1: CACCCGUGCAAAAAUGCAGGGGUCUAAAACUGAGCGGAUAACCUCUCUAUGG
RNA 2: GGGAAUGGAUCCACAUCUACGAAUUCGUACCAUAGAGAGGUUACGCUCACCGAGAUCGGAAGAGCACACGU
B19: target 1 insG 3' of 3,insU 3' of 1 (mixed)
RNA 1: CACCCGUGCAAAAAUGCAGGGGUCUAAAACUGAGCGGAUAACCUCUCUAUGG
RNA 2: GGGAAUGGAUCCACAUCUACGAAUUCGUACCAUAGAGAGGUUAUCCGCUGCAUCCGAGAUCGGAAGAGCACACGU
B20: target 1 C6G,G12U (mixed)
RNA 1: CACCCGUGCAAAAAUGCAGGGGUCUAAAACUGAGCGGAUAACCUCUCUAUGG
RNA 2: GGGAAUGGAUCCACAUCUACGAAUUCGUACCAUAGAGAGUUUAUCGGCUCACCGAGAUCGGAAGAGCACACGU
B21: target 1 U10A,A18C (mixed)
RNA 1: CACCCGUGCAAAAAUGCAGGGGUCUAAAACUGAGCGGAUAACCUCUCUAUGG
RNA 2: GGGAAUGGAUCCACAUCUACGAAUUCGUACCAUCGAGAGGUAAUCCGCUCACCGAGAUCGGAAGAGCACACGU
B22: target 1 insA 3' of 13,insG 3' of 6 (mixed)
RNA 1: CACCCGUGCAAAAAUGCAGGGGUCUAAAACUGAGCGGAUAACCUCUCUAUGG
RNA 2: GGGAAUGGAUCCACAUCUACGAAUUCGUACCAUAGAGAGAGUUAUCCGGCUCACCGAGAUCGGAAGAGCACACGU
B23: target 1 insG 3' of 20,insU 3' of 20 (mixed)
RNA 1: CACCCGUGCAAAAAUGCAGGGGUCUAAAACUGAGCGGAUAACCUCUCUAUGG
RNA 2: GGGAAUGGAUCCACAUCUACGAAUUCGUACCAGUUAGAGAGGUUAUCCGCUCACCGAGAUCGGAAGAGCACACGU

The target in this series is T1, EsCas13d, nuclease-dead. Description: crRNA (strand 1, pre-loaded); Mg2+; 40 mM Tris-HCl pH 7.5, 150 mM NaCl, 6 mM MgCl2, 1 mM DTT, 0.1% Tween-20, 0.2 mg/ml BSA; 25 C; 10 min per concentration, then washed. Particulars: tags: His6-TwinStrep-SUMO cleaved; N-terminal SNAP kept (SNAP-Surface 488); label: 3' end held by stalled T7 RNA polymerase.
B1 yielded a Kd of 11 ± 0.5 nM. In turn, B2 had a Kd of 9.2 ± 0.7 nM. On to B3, for which binding was put at a Kd of 16.7 ± 0.8 nM.

As to B4, the affinity, expressed as Kd, was 23.6 ± 2.1 nM. B5 came in with a Kd of 6.65 ± 0.25 nM. For the molecule B6, binding was characterised by a dissociation constant (Kd) of 12.3 ± 0.6 nM. The figure for B7 is 9.6 ± 0.9 nM; for B8 it is 9.4 ± 0.9 nM; for B9 it is about 30 nM. The same measure for B10: 7.6 ± 0.5 nM.

B11 yielded a Kd of 7 ± 0.6 nM. The figure for B12 is 74 ± 11 nM; for B13 it is 16.4 ± 0.7 nM. The figure for B14 is 21.2 ± 1.5 nM.

In turn, B15 displayed a Kd of 5.6 ± 0.6 nM. The same measure for B16: 30.4 ± 1.8 nM. The figure for B17 is 16.5 ± 1.6 nM; for B18 it is 10.6 ± 0.7 nM; for B19 it is 9.04 ± 0.35 nM.

In the case of B20, the Kd was 13.7 ± 1.2 nM. The figure for B21 is 100 ± 17 nM. Take B22: binding was characterised by a dissociation constant (Kd) of 3.93 ± 0.27 nM.

Regarding B23, the Kd was 28.4 ± 1.6 nM.

These data come from publication PMC10786891, “Massively parallel profiling of RNA-targeting CRISPR-Cas13d”.
